Results taken from US20230140293A1.

How the values were obtained:
[1] = target: CH0505TF.gly3.197 Env, Env-pseudotyped virus produced in 293T cells (HIV-1); assay: cell-based or functional assay
[2] = target: CH0505TF.gly3.461 Env, Env-pseudotyped virus produced in 293S GnTI- cells (Man5-enriched) (HIV-1); assay: cell-based or functional assay
[3] = target: CH0505TF.gly4 Env, Env-pseudotyped virus produced in 293S GnTI- cells (Man5-enriched) (HIV-1); assay: cell-based or functional assay
[4] = target: HIV-1 Env 426c.SM (N276D), Env-pseudotyped virus produced in 293T cells (HIV-1 clade C strain 426c); assay: cell-based or functional assay
[5] = target: HIV-1 clade C strain 426c Env on Env-pseudotyped virus produced in 293T cells (HIV-1); assay: cell-based or functional assay
[6] = target: CH0505TF.gly3.461 Env, Env-pseudotyped virus produced in 293T cells (HIV-1); assay: cell-based or functional assay
[7] = target: HIV-1 Env 426c.DM (N460D.N463D), Env-pseudotyped virus produced in 293T cells (HIV-1 clade C strain 426c); assay: cell-based or functional assay
[8] = target: HIV-1 Env 426c, Env-pseudotyped virus produced in 293T cells (HIV-1 clade C strain 426c); assay: cell-based or functional assay
[9] = target: CH0505.w4.3 Env, Env-pseudotyped virus produced in 293T cells (HIV-1); assay: cell-based or functional assay
[10] = target: CH0505TF.gly3.276 Env, Env-pseudotyped virus produced in 293S GnTI- cells (Man5-enriched) (HIV-1); assay: cell-based or functional assay
[11] = target: CH0505TF.gly3.197 Env, Env-pseudotyped virus produced in 293S GnTI- cells (Man5-enriched) (HIV-1); assay: cell-based or functional assay
[12] = target: HIV-1 426c.TM (N276D/N460D/N463D) Env on Env-pseudotyped virus produced in 293s/GnTI-/- cells (Man5-enrichment) (HIV-1); assay: cell-based or functional assay
[13] = target: HIV-1 Env 426c.DM (N460D.N463D), Env-pseudotyped virus produced in 293S GnTI- cells (Man5-enriched) (HIV-1 clade C strain 426c); assay: cell-based or functional assay
[14] = target: CH0505TF.gly4 Env, Env-pseudotyped virus produced in 293T cells (HIV-1); assay: cell-based or functional assay
[15] = target: CH0505TF.G458Y Env, Env-pseudotyped virus produced in 293S GnTI- cells (Man5-enriched) (HIV-1); assay: cell-based or functional assay
[16] = target: HIV-1 Env 426c.SM (N276D), Env-pseudotyped virus produced in 293S GnTI- cells (Man5-enriched) (HIV-1 clade C strain 426c); assay: cell-based or functional assay
[17] = target: HIV-1 clade C strain 426c Env on Env-pseudotyped virus produced in 293s/GnTI-/- cells (Man5-enrichment) (HIV-1); assay: cell-based or functional assay
[18] = target: HIV-1 426c.SM (N276D) Env on Env-pseudotyped virus produced in 293s/GnTI-/- cells (Man5-enrichment) (HIV-1); assay: cell-based or functional assay
[19] = target: HIV-1 426c.DM (N460D/N463D) Env on Env-pseudotyped virus produced in 293T cells (HIV-1); assay: cell-based or functional assay
[20] = target: HIV-1 426c.TM (N276D/N460D/N463D) Env on Env-pseudotyped virus produced in 293T cells (HIV-1); assay: cell-based or functional assay
[21] = target: CH0505TF.gly3.276 Env, Env-pseudotyped virus produced in 293T cells (HIV-1); assay: cell-based or functional assay
[22] = target: HIV-1 Env 426c, Env-pseudotyped virus produced in 293S GnTI- cells (Man5-enriched) (HIV-1 clade C strain 426c); assay: cell-based or functional assay
[23] = target: HIV-1 Env 426c.TM4 (S278R.G471S.N460D.N463D), Env-pseudotyped virus produced in 293S GnTI- cells (Man5-enriched) (HIV-1 clade C strain 426c); assay: cell-based or functional assay
[24] = target: CH0505TF Env, Env-pseudotyped virus produced in 293S GnTI- cells (Man5-enriched) (HIV-1); assay: cell-based or functional assay
[25] = target: HIV-1 426c.SM (N276D) Env on Env-pseudotyped virus produced in 293T cells (HIV-1); assay: cell-based or functional assay
[26] = target: HIV-1 Env 426c.TM4 (S278R.G471S.N460D.N463D), Env-pseudotyped virus produced in 293T cells (HIV-1 clade C strain 426c); assay: cell-based or functional assay
[27] = target: HIV-1 426c.DM (N460D/N463D) Env on Env-pseudotyped virus produced in 293s/GnTI-/- cells (Man5-enrichment) (HIV-1); assay: cell-based or functional assay
[28] = target: CH0505TF Env, Env-pseudotyped virus produced in 293T cells (HIV-1); assay: cell-based or functional assay
[29] = target: HIV-1 Env 426c.TM (N276D.N460D.N463D), Env-pseudotyped virus produced in 293T cells (HIV-1 clade C strain 426c); assay: cell-based or functional assay
[30] = target: CH0505TF.G458Y Env, Env-pseudotyped virus produced in 293T cells (HIV-1); assay: cell-based or functional assay
[31] = target: HIV-1 Env 426c.TM (N276D.N460D.N463D), Env-pseudotyped virus produced in 293S GnTI- cells (Man5-enriched) (HIV-1 clade C strain 426c); assay: cell-based or functional assay
[32] = target: CH505 w053.16 gp120 (HIV-1); assay: ELISA, gp120 on plate
CH505 M5 gp120 (HIV-1) = assay: ELISA, gp120 on plate
[33] = target: CH505 w030.28 gp120 (HIV-1); assay: ELISA, gp120 on plate
[34] = target: CH505 transmitted/founder (TF) gp120 (HIV-1); assay: ELISA, gp120 on plate
CH505 M11 gp120 (HIV-1) = assay: ELISA, gp120 on plate
[35] = target: CH505 w020.14 gp120 (HIV-1); assay: ELISA, gp120 on plate
[36] = target: CH505 w078.15 gp120 (HIV-1); assay: ELISA, gp120 on plate

2219 (antibody)
> 25 µg/mL: IC50 (µg/ml) in TZM-bl [1] | IC50 (µg/ml) in TZM-bl [2] | IC50 (µg/ml) in TZM-bl [3] | IC50 (µg/ml) in TZM-bl [4] | ID50/IC50 in TZM-bl [5] | IC50 (µg/ml) in TZM-bl [6] | IC50 (µg/ml) in TZM-bl [7] | IC50 (µg/ml) in TZM-bl [8] | IC50 (µg/ml) in TZM-bl [9] | IC50 (µg/ml) in TZM-bl [10] | IC50 (µg/ml) in TZM-bl [11] | ID50/IC50 in TZM-bl [12] | IC50 (µg/ml) in TZM-bl [13] | IC50 (µg/ml) in TZM-bl [14] | IC50 (µg/ml) in TZM-bl [15] | IC50 (µg/ml) in TZM-bl [16] | ID50/IC50 in TZM-bl [17] | ID50/IC50 in TZM-bl [18] | ID50/IC50 in TZM-bl [19] | ID50/IC50 in TZM-bl [20] | IC50 (µg/ml) in TZM-bl [21] | IC50 (µg/ml) in TZM-bl [22] | IC50 (µg/ml) in TZM-bl [23] | IC50 (µg/ml) in TZM-bl [24] | ID50/IC50 in TZM-bl [25] | IC50 (µg/ml) in TZM-bl [26] | ID50/IC50 in TZM-bl [27] | IC50 (µg/ml) in TZM-bl [28] | IC50 (µg/ml) in TZM-bl [29] | IC50 (µg/ml) in TZM-bl [30] | IC50 (µg/ml) in TZM-bl [31]

CH103 lineage intermediate ancestor IA3 (antibody)
9.5 log AUC: log AUC [35]
7.7 log AUC: log AUC [33]
11 log AUC: log AUC [34]
1.1 log AUC: log AUC [32]
6.8 log AUC: log AUC (CH505 M5 gp120 (HIV-1))
11.8 log AUC: log AUC (CH505 M11 gp120 (HIV-1))
3 log AUC: log AUC [36]
